Source: article PMC12817190

Experiments:
porcine fibrin (porcine) = porcine fibrin (porcine) (UniProt P14460)
human fibrin (human) = human fibrin (human) (UniProt P02671)
Chain of UniProt P02671 (P02671 36-866, chain 1 of 3): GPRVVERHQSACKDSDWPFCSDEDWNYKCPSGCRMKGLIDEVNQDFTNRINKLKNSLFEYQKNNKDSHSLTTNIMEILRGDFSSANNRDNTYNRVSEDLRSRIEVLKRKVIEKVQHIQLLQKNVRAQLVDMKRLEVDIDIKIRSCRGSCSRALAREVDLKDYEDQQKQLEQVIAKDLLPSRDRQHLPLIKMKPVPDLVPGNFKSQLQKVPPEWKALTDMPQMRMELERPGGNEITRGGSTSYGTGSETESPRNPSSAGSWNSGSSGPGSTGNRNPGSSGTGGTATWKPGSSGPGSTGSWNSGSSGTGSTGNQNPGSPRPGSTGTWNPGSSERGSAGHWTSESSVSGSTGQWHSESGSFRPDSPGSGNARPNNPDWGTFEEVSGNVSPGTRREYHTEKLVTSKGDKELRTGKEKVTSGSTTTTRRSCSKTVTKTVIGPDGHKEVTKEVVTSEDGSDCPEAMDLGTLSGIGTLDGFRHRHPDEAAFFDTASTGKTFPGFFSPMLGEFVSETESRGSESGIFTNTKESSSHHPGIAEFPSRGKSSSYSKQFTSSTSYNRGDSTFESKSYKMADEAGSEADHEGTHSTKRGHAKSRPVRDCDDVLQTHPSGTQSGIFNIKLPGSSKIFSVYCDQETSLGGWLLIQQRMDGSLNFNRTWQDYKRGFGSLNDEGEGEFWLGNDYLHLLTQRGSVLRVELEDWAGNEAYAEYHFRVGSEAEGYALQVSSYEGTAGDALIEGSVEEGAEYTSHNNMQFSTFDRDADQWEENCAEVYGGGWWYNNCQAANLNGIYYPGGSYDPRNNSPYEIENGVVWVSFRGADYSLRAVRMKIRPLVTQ
Chain of UniProt P02671 (P02675 45-491, chain 2 of 3, further chain): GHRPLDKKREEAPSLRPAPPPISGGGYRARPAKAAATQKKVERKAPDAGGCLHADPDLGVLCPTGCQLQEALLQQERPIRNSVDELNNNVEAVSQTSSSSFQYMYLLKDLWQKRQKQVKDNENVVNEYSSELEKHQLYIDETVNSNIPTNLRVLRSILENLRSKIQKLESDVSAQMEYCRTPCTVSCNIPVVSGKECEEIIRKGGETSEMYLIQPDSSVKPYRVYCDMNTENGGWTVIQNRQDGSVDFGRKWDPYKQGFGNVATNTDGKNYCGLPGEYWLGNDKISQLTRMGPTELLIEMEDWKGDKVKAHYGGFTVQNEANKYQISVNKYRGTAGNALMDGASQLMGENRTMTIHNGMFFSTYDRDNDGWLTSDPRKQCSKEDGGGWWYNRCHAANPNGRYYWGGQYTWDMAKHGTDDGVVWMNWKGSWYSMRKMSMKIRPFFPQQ
Chain of UniProt P02671 (P02679 other isoform, or with tags, fused parts or gaps, chain 3 of 3, further chain): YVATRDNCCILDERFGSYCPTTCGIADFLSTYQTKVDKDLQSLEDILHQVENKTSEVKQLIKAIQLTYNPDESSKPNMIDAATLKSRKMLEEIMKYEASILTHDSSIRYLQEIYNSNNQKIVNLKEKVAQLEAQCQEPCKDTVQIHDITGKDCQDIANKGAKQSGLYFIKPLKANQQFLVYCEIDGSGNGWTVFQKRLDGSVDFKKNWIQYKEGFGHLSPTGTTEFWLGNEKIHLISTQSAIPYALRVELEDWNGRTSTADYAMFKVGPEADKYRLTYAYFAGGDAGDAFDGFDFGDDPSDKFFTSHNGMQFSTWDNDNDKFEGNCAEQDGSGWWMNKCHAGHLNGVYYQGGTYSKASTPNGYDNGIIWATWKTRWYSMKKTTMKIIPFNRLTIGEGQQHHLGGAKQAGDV

K m of overall fibrin breakdown by plasmin (clot lysis time by turbidity against fibrinogen 0 to 5 µM, batroxobin clots, 5 nM active plasmin) (porcine fibrin (porcine)) [µM]	K m of overall fibrin breakdown by plasmin (clot lysis time by turbidity against fibrinogen 0 to 5 µM, batroxobin clots, 5 nM active plasmin) (human fibrin (human)) [µM]	Substance
4.9	3.1	porcine plasmin (from UniProt P06867 20-809; P06867 20-809) (enzyme)
1.3	1.1	human plasmin (from UniProt P00747 20-580) (enzyme)
